Source: publication PMC8300624, “Prdx1 Interacts with ASK1 upon Exposure to H2O2 and Independently of a Scaffolding Protein” (Antioxidants, 2021)

Experiments:
[1] = target: T1, recombinant wild-type peroxiredoxin-1 (Prdx1 WT) (human, UniProt Q06830 1-199); test: BLI; Octet Red 96; His-tagged MBP-ASK1-TBD loaded on Ni2+-NTA sensors at 0.45 µM; Prdx as analyte at 1 µM or at different concentrations for kon and koff; 10 µM H2O2 (oxidizing condition); 25 mM Tris/HCl pH 7.4, 25 mM NaCl, 1% BSA, 0.05% Tween 20, 0.01 mM maltose; His-tagged MBP as reference; the paper takes the bond to be a mixed disulfide; settings: both partners purified
T1 construct: peroxiredoxin-1 (Prdx1); In the BLI the protein was pre-reduced with DTT, desalted and then met the sensor in 10 µM H2O2 or 10 µM DTT; also called pET17-Prdx1; source: E. coli BL21, purified (Phenyl Sepharose, SP Sepharose, Superdex 75)
T1 sequence (looked up): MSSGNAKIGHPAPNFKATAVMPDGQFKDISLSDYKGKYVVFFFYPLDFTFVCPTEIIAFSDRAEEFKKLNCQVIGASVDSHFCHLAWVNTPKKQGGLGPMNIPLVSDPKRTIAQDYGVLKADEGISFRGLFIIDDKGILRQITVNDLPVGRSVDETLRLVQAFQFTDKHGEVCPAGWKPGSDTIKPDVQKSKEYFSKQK

[2] = target: T2, recombinant Prdx1 C173A (resolving cysteine mutant) (human, UniProt Q06830 1-199, C173A); test: as above; settings: both partners purified
T2 construct: peroxiredoxin-1 (Prdx1) with C173A; purified by the same protocol as Prdx1 WT; source: E. coli BL21, purified (Phenyl Sepharose, SP Sepharose, Superdex 75)
T2 sequence (looked up): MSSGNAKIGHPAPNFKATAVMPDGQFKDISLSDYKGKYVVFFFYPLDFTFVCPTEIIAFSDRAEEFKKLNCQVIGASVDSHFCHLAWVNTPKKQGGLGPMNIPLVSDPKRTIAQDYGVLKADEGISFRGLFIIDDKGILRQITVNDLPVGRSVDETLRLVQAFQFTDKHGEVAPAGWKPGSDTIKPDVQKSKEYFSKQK

B1: 6xHis-MBP-ASK1-TBD (thioredoxin-binding domain of ASK1 with N-terminal His tag and maltose binding protein) (domain or fragment)
chain: SRRTTVAYVINEASQGQLVVAESEALQSLREACETVGATLETLHFGKLDFGETTVLDRFYNADIAVVEMSDAFRQPSLFYHLGVRESFSMANNIILYCDTNSDSLQSLKEIICQKNTMCTGNYTFVPYMITPHNKVYCCDSSFMKGLTELMQPNFELLLGPICLPLVDRFIQLLKVAQASSSQYFRESILNDIRKARNLYTGKELAAELARIRQR
modifications: Limits are not given; 88-302 is the usual recombinant ASK1-TBD construct and spans the listed TBD cysteines 120-250. His6-MBP-TEV carrier omitted. Assayed with 10 uM H2O2 (oxidizing) or 10 uM DTT …
- koff [1]: 0.0002 s⁻¹
- kon [1]: 32700 M⁻¹ s⁻¹
- koff [2]: 0.00228 s⁻¹
- kon [2]: 7200 M⁻¹ s⁻¹
